Assay results as given in the nanobody polyreactivity screen of Harvey et al. (2022).

Test: yeast display, Sf9 membrane polyspecificity reagent, FACS + sequencing; frameworks hold sequencing errors
Outline: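 In a synthetic yeast display library (Saccharomyces cerevisiae BJ5465), nanobody expression was induced with galactose for 36–48 hours. FACS gates were set low and high (top ~1%) using anti-HA fluorescence for expression and streptavidin fluorescence for binding of the Sf9 membrane reagent. Each polyreactivity label is drawn from the gate of origin.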

Row | Sequence | polyreactivity (PSR sort gate)
1 | QVQLVESGGGLVQAGGSLRLSCAASGLTFSPYAKGWYRQAPGKERELVASITNGGRTYYADSVKGRFTISRDNAKNTVYLQMNSLKPEDTAVYYCNAAYFGWFNTYNYWGQGTQVTVSS | high polyreactivity
2 | QVQLVETGGGLVQAGGSLRLSCAASGSIFVLYAMGWYRQAPGKEREFVAAISSSGGSTYADSVKGRFTISRDNAKNTVYLQMNSLKPEDTAVYYCARDVYLSDPPRDYDYWGQGTQVTVSS | low polyreactivity
3 | QVQLVESGGGLVQAGGSLRLSCAASGRIFWDYGMGWYRQAPGKERELVAVITWGGGSTYYADSVKGRFTISRDNAKNTVYFQMNSLKPEDTAVYYCAKEYHYYYWGQGTQVTVSS | low polyreactivity
4 | QGQLVESGGCLVQEGGSLRLSCAASGRIFWYYTMGWYRQAPGKERELVATIRSGDRKNYADSVKGRFTISLDNAKNTVYLQMNSLKPDDTAVYYCAATRALVNTHRYYYWGQGTQVTVSS | high polyreactivity
5 | QVQLVESGGGLVQAGGSLRLSCAASGRIFGYYAMGWYRQAPGTERELVAAITYNGASTYYADSVKGRFTISRDNAKNTVYLQMNSLKPEDTAVYYCAVLTRYGGYGYWGQGTQVTVSS | high polyreactivity
6 | QVQLVESGGGLVQAGGSLRLSCAASGITFYFYVMGWYRQAPGKERELVADISTSDDSTYYADSVKGRFTISRDNAKNTVYLQMNSLKPEDTAVYYCATATRTYSAWYEYDYWGQGTQVTVSS | low polyreactivity
7 | QVQLVESGGGLVQAGGSLRLSCAASGFTFKTYVMGWYRQAPGKERELVAAISRRGGSTHYADSVKGRFTISRDNAKNTVYLQMNSLKPEDTAVYYCARRWYSTWWYGYWGQGTQVTVSS | high polyreactivity
8 | QVQLVDSGGGLVQAGGSLRLSCAASGRTVRYYTMGWYRQAPGKERELVAAISNAASTNYADSVKGRFTISRDNAKNTVYLQMNSLKPEDTAVYYCNAYLHYRAGHPRGYHNRYYYWGQGTQVTVSS | high polyreactivity
9 | QVQLVESGGGLVQAGGSLRLSCAASGSILFYAMVWYRQAPGKERELVAAITWRGGSTYYADSVKGRFTISRDNAKNSVYLQMNSLKPEDTAVYYCARDETGRIEGDYWGQGTQVTVSS | high polyreactivity
10 | QVQLVESGGGLVQAGGSLRLSCAASGRTFGNYAMGWYRQAPGKERELVAAITSSGGTTYYADSVKGRFTISRDYAKNTVYLQMNSLKPEDTAVYYCAARHYPRNSWGYDYWGQGTQVNVSS | high polyreactivity
11 | QVQLVESGGGLVQAGGSLRLICAASGRTFYPSVMGWYRQAPGKERELVARIRWSGSSTYYADSVKGRFTISRDNAKNTVYLQMNSLKPEDTAVYYCNARPSWYVLGSSVHSGMGYWGQGTQVTVSS | high polyreactivity
12 | QVQLVESGGGLVQAGGSLRLSCAASGRIFEINARGWYRQAPGKERELVAAITRSGGSTYYADSVKGRFTISRDNAKNTVYFQMNSLTPEDTAVYYCAARGRYWYSRYYSWGQGTQVTVSS | high polyreactivity
13 | QVQLVESGGGLVQAGGSLRLSCAASGRTFVTNAMGWYRQAPGKERELVAAISKSGGRTYYADSVKGRFTISRDNAKNTVYLQMNRLKPEDTAVYYCAADKRYLSYDYWGQGTQVTVSS | high polyreactivity
14 | QVQLVESGGGLVQAGGSLRLSCAASGRTFYFYAMGWSRQSPGKERELVADIRGISGSTYYADSVKGRFTISRDNAKNTVYLQMNSLKPEDTAVYYCAADPYLGRAWRGRGYYWGQGTQVTVSS | high polyreactivity
15 | QVQLVESGGGLVQAGGSLRLICAASGSIFYIYAMGWYRQAPGKERELVAVIDNSGSTNYADSVKGRFTISRDNAKNTVYLLINSLKPEDTADYYCLKLWLWASYLYDYWGQGTQVTVSS | low polyreactivity
16 | QVQLVESGGGLVQAGGSLRLSCAASGSIFESYVMGWYRQAPGKERELVAAISSGGSTYYADSVKGRFTISRDNAKNTVYLQMNSLKPEDTAVYYCAANYDGGYLDYEAGYRLEYDYWGQGTQVTVSS | low polyreactivity
17 | QVQLVESGGGLVQAGGSLRISCAASGRTFLSYGMGWYRQAPGKERELVATIDDSGSTYYADSVKGRFTISRDNAKNTVYLQMNSLKPEDTAVYYCATDRQVFYWDFWYIEYDYGGQGTQVTVSS | high polyreactivity
18 | QVQLVESGGGLVQAGGSLRLSCAASGRTFDEYPMGWYRQAPGKERELVAAISTRGGSTYYADSVKGRFSISRDNAKNTVYLQMNSLKPEDTAVYYCAKAYYPYRYFSVYSDLESWGQGTQVTVSS | high polyreactivity
19 | QVQLVESGGGLVQAGGSLRLSCAASGRIFRWYAMGWYRQAPGKERELVAAISSRGGSTYYADSVKGRFTISRDNAKNTVYLQMNSLKPEDTAVYYCAADTSGWQPRYDYWGQGTQVTVSS | high polyreactivity
20 | QVQLVESGGGLVQAGGSLRLSCAASGSIFYVYAMGWYRQAPGNERELVAAINTSGGSTFYADSVKGRFTISRDNAKNTVYLQINSLKPEDTAVYYCAAERYRYRSTDTMGYWGQGTQVTVSS | low polyreactivity
21 | QVQLQESGGGLVQAGGSLRLSCAASGTISVHASMGWYRQAPGKERELVAGITDGANTYYADSVKGRFTISRDNSKNTVYLQMNSLIPEDTAVYYCAAYYGTEVHFTYWGQGTQVTVSS | low polyreactivity
22 | QVQLQESGGGLVQAGGSLRLRCAASRNNSGSSDLGWYHQAPGKEREFVASITSGGTTYYADSVKGRFTISRDNAKNTVYLQMNSLKPEDTAVYYCAVGDPADAEFGYWGQGTQVTVSS | low polyreactivity

Row | Sequence | polyreactivity (PSR sort gate)
23 | QVQLVESGGGLVQAGGSLRLSCAASGITFQWNAMGWYRQAPGKERELVAAISSGTSTYYADSVKGRFTISRDNAKNTVYLQMNSLKPEDTAVYYCNAVKSWGHPGRYYWGQGTQVTVSS | high polyreactivity
24 | QVQLVESGGGIVQAGGSLRLSCAASGITFPANAMGWYRQAPGKERELVADISESDGSTYYADSVKGRFTISRDNAKNTVYLQMNSLKPEDTAVYYCAADGTSGTRSDYWGQGTQVTVSS | low polyreactivity
25 | QVQLVESGGGLVQAGGSLRLSCAASGSILYPTAMGWYTQAPGKEREFVAGITSSGSTYYADSVKGRFTISRDNAKNTVDDQMNSLKPDDTAVYYCATSVYRTYGNSVHRMNYWGQGTQVTVSS | high polyreactivity
26 | QVQLVESGGGLVQAGGSLRLSCAASGRTFSENAMGWYRQAPGKERELVAAISGSGGRTYYADSVKGRFTISRDNAKNTVYLQMNRLKPEDTAVYYCAKVTRYGSTYDYWGQGTQVTVSS | high polyreactivity
27 | QVQLVESGGGLVQAGGSLRLSCAASGRIFRYYAMGWYRQAPGKERELVASSTYYADSVKGRFTISRDNAKNTVYLQMNSLKPEDTAVYYCAAVKGTRGWYDYWGQGTQVTVSS | high polyreactivity
28 | QVQHVESGGGLVQAGGSLRLSCAASGSTFYFYTMGWYRQAPGKERELVAAITYSGGSTYADSVKGRFTISRDNAKNTDYLQMNSLKPEDTAVYYCAAASYFYLYLLEDYWGQGTQVTVSS | low polyreactivity
29 | QVHLVESGGGLVQAGGSLRLSCAASGRPFSKYTMGWDRQAPGKERELVAVISRSGTRTYYADSVKGRFTISRDNAKNTVYLQMNSLKPEDTAVYYCAAKDERRSFGMGYWGQGTQVTVSS | high polyreactivity
30 | QVQLVESGGGLVQAGGSLRLSCAASGSTFSSYAMGWYRQAPGKERELVAGIAWGGSSTDYADSVKWRFTISRDTAKNTVYLQMNSLKPEDTAVYYCARRYRRGWSTLDYWGQGTQVTVSS | low polyreactivity
31 | QVHLVESGGGLVQAGGSLRLSCAASGSLFYYNAMGWYRPAPGKERDLVAAINSNGGSTYYADTVKGRFTISRDNAKNTVYLQMNSLKPEDTAVYSSAAKYYFNWHRQGYDYWGQGTQVTVSS | high polyreactivity
32 | QVQLVESGGGLVQAGGSLRLSCAASGSTFLRYAMGWYRQAPGKERELVAAINLSGDRTYYADSVKGRFTISRDNAKNTDYVQMNSLKPEDTAVYYCAARWWGPSYDAYDYWVQGTQVTVSS | low polyreactivity
33 | QVQLVESGGGLVQAGGSLRLSCAASGLIFAGYTMGWYRQAPGKERELVAAISISGGSTYYADSVKGRFTISRDNAKNTVYLQMNSLKPEDTAVYYCASKRRSWPPTYYYWGQGTQVTVSS | high polyreactivity
34 | QVQLVESGGGLVQAGGSLRLSCAASGSTFSFNDRGWYRQAPGKERELVADISCSGDTTYADSVKGRFTISRDNAKNTVYLQMKSLKPEATAVYYCAARQYFRNYVYWGQGTQVTVSS | high polyreactivity
35 | QVQLVESGGGLVQAGGSLRLSCAASGRTLRINAMGWYRQAPGKERELVAAISRSGGRTYYADSVKGRFTISRDNAKNTVYLQRNSLKPEDTAVYYCATGGVAYNYGWGQYYYWGQGTQVTVSS | high polyreactivity
36 | QVQLVESGGGLVQAGGSLRLSCAASGRIFTTYAMGWYRQAPGKERELVAAISRSGGSTYYADSVKGRFTISRDNAKNTVYLQMNSLKPEDTAVYYCAAVPTSNSFLSSFYYWGQGTQVTVSS | high polyreactivity
37 | QVQLVESGGGLVQAGGSLRLSCAASGRIFPAYAMGWYRQAPGKERELVASIRRGGITYADSVKGRFTSSRDNAKNTVYLQMNSLKPEDTAVYYCNADKYGPSAYDYWGQGTQVTVSS | low polyreactivity
38 | QVQLVESGGGLVQAGGSLRLSCAASGSIFGSYAMGWYRQAPGKERELVAAIRSGGGTYYADSVKGRFTISRDNAKNTVYLQMNSLKPEDTAVYYCAAGDGFYFSFYIYDYWGQGTQGTVSS | low polyreactivity
39 | QVQLVESGGGIVQAGGSLRLSCAASGFTFTHYAMGWYRQAPGKERELVAAISPSGGSTYYADSVKGRFTISRDNAKNTVYLQMNSLKTEDTAVFYFAARRDGWVQWGYYYWGQGTEVTVSS | low polyreactivity
40 | QVQLVESGGGLVQAGGSLRLSCAASGRIFFYYAMGWYRQAPGTERELVAAISKSGGRTYYADSVKGRFTISRDNAKNTVYLQMNSLKPEDTAVYYCAAYSAHDSDYWGQGTQVTVSS | high polyreactivity
41 | QVQLVESGGGLVQAGGSLRLSCAASGRTFYIYAMGWYRQAPGKERALDAAITYGGGRTFYADSVKGRFTISRDNAKNTVYLQMNSLKPEDTAVYYCAATVRGKRSTYDYWGQGTQVTVSS | high polyreactivity
42 | QVQLVDSGGVLFQAGVSLLISCYASGITFYSYALGRNRRAPGKDWELVASITKSSGRTYYADSVKGRFTISRDNAKTTVSLQMNSVKPEDTAVYYCKAYYVALPPNMDYWGQGTQVTVSS | high polyreactivity
43 | QVQLVESGGGLVQAGGSLRLTCAASGRIFITNAMGWYSQAPGKEREMVAVISYIGGRTYYADSVKGRFTISRDNAKNTVYLQMNSLKPEDTAVYYCAARRSRPTYYSTGVNYWGQGTQVTVSS | high polyreactivity
